The source of these data is the supplement of paper PMC11316812.

± gives the standard deviation of the averaged measurements.

One data set has as its system hTERT-HMEC. As to the kind of experiment: percentage of EdU-negative (G0-arrested) nuclei per well, 72 h; higher = more G0 arrest. The note with it: reference: sequence is the full UniProt precursor, the tested protein was the secreted form or ectodomain.
A further data set concerns MCF7. Described as above. Conditions: reference: sequence is the full UniProt precursor, the tested protein was the secreted form or ectodomain.
[1] abbreviates: protein concentration 0.01775 µM.
Setting [2] is: protein concentration 0.1775 µM.
Setting [3] is: protein concentration 0.0225 µM.
Setting [4] is: protein concentration 0.02372 µM.
Setting [5] is: protein concentration 0.2372 µM.
Setting [6] is: protein concentration 0.0257143 µM.
Where [7] appears, read: protein concentration 0.257143 µM.
[8] abbreviates: protein concentration 0.03125 µM.
The mark [9] stands for this setting: protein concentration 0.3125 µM.
Setting [10] is: protein concentration 0.0183225 µM.
[11] abbreviates: protein concentration 0.183225 µM.
Setting [12] is: protein concentration 0.03054 µM.
The mark [13] stands for this setting: protein concentration 0.3054 µM.
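Also: secreted proteins added to cultured cells, EdU pulse at the end, nuclei found by Hoechst imaging, EdU status from nuclear versus surrounding ring intensity ratio, PBS as neutral control.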

For “MIRTLLLSTLVAGALSCGDPTYPPYVTRVVGGEEARPNSWPWQVSLQYSSNGKWYHTCGGSLIANSWVLTAAHCISSSRTYRVGLGRHNLYVAESGSLAVSVSKIVVHKDWNSNQISKGNDIALLKLANPVSLTDKIQLACLPPAGTILPNNYPCYVTGWGRLQTNGAVPDVLQQGRLLVVDYATCSSSAWWGSSVKTSMICAGGDGVISSCNGDSGGPLNCQASDGRWQVHGIVSFGSRLGCNYYHKPSVFTRVSNYIDWINSVIANN”, the “percentage of EdU-negative” value in the data set with hTERT-HMEC (setting [1]) stood at 6.83 ± 1.7%; in the data set on hTERT-HMEC (setting [2]), 24.7 ± 3.9%; with MCF7 (setting [1]) it was 23.79 ± 0.23%; with MCF7 (setting [2]) it was 29.6 ± 2.2%.

“MIRTLLLSTLVAGALSCGVSTYAPDMSRMLGGEEARPNSWPWQVSLQYSSNGQWYHTCGGSLIANSWVLTAAHCISSSGIYRVMLGQHNLYVAESGSLAVSVSKIVVHKDWNSDQVSKGNDIALLKLANPVSLTDKIQLACLPPAGTILPNNYPCYVTGWGRLQTNGALPDDLKQGQLLVVDYATCSSSGWWGSTVKTNMICAGGDGVICTCNGDSGGPLNCQASDGRWEVHGIGSLTSVLGCNYYYKPSIFTRVSNYNDWINSVIANN”: the “percentage of EdU-negative” value is 4.64 ± 0.17% with hTERT-HMEC (setting [3]), 5.75 ± 0.53% in the data set with hTERT-HMEC (protein concentration 0.225 µM), 22.3 ± 2.4% in the data set on MCF7 (setting [3]) and 26.3 ± 0.6% in the data set with MCF7 (protein concentration 0.225 µM).

Consider “MISPFLVLAIGTCLTNSLVPEKEKDPKYWRDQAQETLKYALELQKLNTNVAKNVIMFLGDGMGVSTVTAARILKGQLHHNPGEETRLEMDKFPFVALSKTYNTNAQVPDSAGTATAYLCGVKANEGTVGVSAATERSRCNTTQGNEVTSILRWAKDAGKSVGIVTTTRVNHATPSAAYAHSADRDWYSDNEMPPEALSQGCKDIAYQLMHNIRDIDVIMGGGRKYMYPKNKTDVEYESDEKARGTRLDGLDLVDTWKSFKPRYKHSHFIWNRTELLTLDPHNVDYLLGLFEPGDMQYELNRNNVTDPSLSEMVVVAIQILRKNPKGFFLLVEGGRIDHGHHEGKAKQALHEAVEMDRAIGQAGSLTSSEDTLTVVTADHSHVFTFGGYTPRGNSIFGLAPMLSDTDKKPFTAILYGNGPGYKVVGGERENVSMVDYAHNNYQAQSAVPLRHETHGGEDVAVFSKGPMAHLLHGVHEQNYVPHVMAYAACIGANLGHCAPASSAGSLAAGPLLLALALYPLSVLF”, for which the “percentage of EdU-negative” value stood at 4.55 ± 0.2% with hTERT-HMEC (setting [3]), 4.93 ± 0.7% with hTERT-HMEC (protein concentration 0.225 µM), 26.1 ± 0.93% in the data set with MCF7 (setting [3]) and 24.1 ± 2.4% in the data set with MCF7 (protein concentration 0.225 µM).

As for “MISPVLILFSSFLCHVAIAGRTCPKPDDLPFSTVVPLKTFYEPGEEITYSCKPGYVSRGGMRKFICPLTGLWPINTLKCTPRVCPFAGILENGAVRYTTFEYPNTISFSCNTGFYLNGADSAKCTEEGKWSPELPVCAPIICPPPSIPTFATLRVYKPSAGNNSLYRDTAVFECLPQHAMFGNDTITCTTHGNWTKLPECREVKCPFPSRPDNGFVNYPAKPTLYYKDKATFGCHDGYSLDGPEEIECTKLGNWSAMPSCKASCKVPVKKATVVYQGERVKIQEKFKNGMLHGDKVSFFCKNKEKKCSYTEDAQCIDGTIEVPKCFKEHSSLAFWKTDASDVKPC”, the “percentage of EdU-negative” value with hTERT-HMEC (setting [4]) is 5.35 ± 0.089%; in the data set on hTERT-HMEC (setting [5]) it was 5.3 ± 0.56%; in the data set with MCF7 (setting [4]) it was 28.1 ± 0.39%; with MCF7 (setting [5]), 24.5 ± 3.1%.

For the sequence “MKAIIHLTLLALLSVNTATNQGNSADAVTTTETATSGPTVAAADTTETNFPETASTTANTPSFPTATSPAPPIISTHSSSTIPTPAPPIISTHSSSTIPIPTAADSESTTNVNSLATSDIITASSPNDGLITMVPSETQSNNEMSPTTEDNQSSGPPTGTALLETSTLNSTGPSNPCQDDPCADNSLCVKLHNTSFCLCLEGYYYNSSTCKKGKVFPGKISVTVSETFDPEEKHSMAYQDLHSEITSLFKDVFGTSVYGQTVILTVSTSLSPRSEMRADDKFVNVTIVTILAETTSDNEKTVTEKINKAIRSSSSNFLNYDLTLRCDYYGCNQTADDCLNGLACDCKSDLQRPNPQSPFCVASSLKCPDACNAQHKQCLIKKSGGAPECACVPGYQEDANGNCQKCAFGYSGLDCKDKFQLILTIVGTIAGIVILSMIIALIVTARSNNKTKHIEEENLIDEDFQNLKLRSTGFTNLGAEGSVFPKVRITASRDSQMQNPYSRHSSMPRPDY [Q9H3R2]”, the “percentage of EdU-negative” value in the data set with hTERT-HMEC (setting [6]) came to 5.64 ± 0.33%; with hTERT-HMEC (setting [7]) it was 5.31 ± 0.37%; with MCF7 (setting [6]), 22.5 ± 1.3%; with MCF7 (setting [7]), 26.7 ± 0.67%.

As for “MKALGAVLLALLLFGRPGRGQTQQEEEEEDEDHGPDDYDEEDEDEVEEEETNRLPGGRSRVLLRCYTCKSLPRDERCNLTQNCSHGQTCTTLIAHGNTESGLLTTHSTWCTDSCQPITKTVEGTQVTMTCCQSSLCNVPPWQSSRVQDPTGKGAGGPRGSSETVGAALLLNLLAGLGAMGARRP [Q8IV16]”, the “percentage of EdU-negative” value came out at 4.99 ± 0.54% in the data set on hTERT-HMEC (setting [3]), 4.82 ± 0.83% in the data set on hTERT-HMEC (protein concentration 0.225 µM), 28.3 ± 1.3% in the data set on MCF7 (setting [3]) and 24.9 ± 0.96% in the data set with MCF7 (protein concentration 0.225 µM).

For the sequence “MKALIAALLLITLQYSCAVSPTDCSAVEPEAEKALDLINKRRRDGYLFQLLRIADAHLDRVENTTVYYLVLDVQESDCSVLSRKYWNDCEPPDSRRPSEIVIGQCKVIATRHSHESQDLRVIDFNCTTSSVSSALANTKDSPVLIDFFEDTERYRKQANKALEKYKEENDDFASFRVDRIERVARVRGGEGTGYFVDFSVRNCPRHHFPRHPNVFGFCRADLFYDVEALDLESPKNLVINCEVFDPQEHENINGVPPHLGHPFHWGGHERSSTTKPPFKPHGSRDHHHPHKPHEHGPPPPPDERDHSHGPPLPQGPPPLLPMSCSSCQHATFGTNGAQRHSHNNNSSDLHPHKHHSHEQHPHGHHPHAHHPHEHDTHRQHPHGHHPHGHHPHGHHPHGHHPHGHHPHCHDFQDYGPCDPPPHNQGHCCHGHGPPPGHLRRRGPGKGPRPFHCRQIGSVYRLPPLRKGEVLPLPEANFPSFPLPHHKHPLKPDNQPFPQSVSESCPGKFKSGFPQVSMFFTHTFPK”, the “percentage of EdU-negative” value with hTERT-HMEC (setting [8]) was determined as 4.57 ± 0.34%; with hTERT-HMEC (setting [9]), 4.52 ± 0.3%; in the data set on MCF7 (setting [8]), 26 ± 1.3%; with MCF7 (setting [9]) it was 25.5 ± 0.58%.

With “MKALIVLGLVLLSVTVQGKVFERCELARTLKRLGMDGYRGISLANWMCLAKWESGYNTRATNYNAGDRSTDYGIFQINSRYWCNDGKTPGAVNACHLSCSALLQDNIADAVACAKRVVRDPQGIRAWVAWRNRCQNRDVRQYVQGCGV”, the “percentage of EdU-negative” value was determined as 5.192 ± 0.011% in the data set with hTERT-HMEC (setting [10]), 4.83 ± 0.071% with hTERT-HMEC (setting [11]), 25.9 ± 0.84% in the data set on MCF7 (setting [10]) and 24.489 ± 0.011% in the data set on MCF7 (setting [11]).

On to “MKALLALPLLLLLSTPPCAPQVSGIRGDALERFCLQQPLDCDDIYAQGYQSDGVYLIYPSGPSVPVPVFCDMTTEGGKWTVFQKRFNGSVSFFRGWNDYKLGFGRADGEYWLGLQNMHLLTLKQKYELRVDLEDFENNTAYAKYADFSISPNAVSAEEDGYTLFVAGFEDGGAGDSLSYHSGQKFSTFDRDQDLFVQNCAALSSGAFWFRSCHFANLNGFYLGGSHLSYANGINWAQWKGFYYSLKRTEMKIRRA”, for which the “percentage of EdU-negative” value in the data set with hTERT-HMEC (setting [8]) came to 4.11 ± 0.33%; with hTERT-HMEC (setting [9]) it was 4.91 ± 0.91%; with MCF7 (setting [8]), 22.9 ± 0.61%; in the data set on MCF7 (setting [9]), 26.2 ± 3.4%.

With “MKASSLAFSLLSAAFYLLWTPSTGLKTLNLGSCVIATNLQEIRNGFSEIRGSVQAKDGNIDIRILRRTESLQDTKPANRCCLLRHLLRLYLDRVFKNYQTPDHYTLRKISSLANSFLTIKKDLRLCHAHMTCHCGEEAMKKYSQILSHFEKLEPQAAVVKALGELDILLQWMEETE [Q9NYY1]”, the “percentage of EdU-negative” value in the data set with hTERT-HMEC (setting [3]) is 4.59 ± 0.14%; in the data set with hTERT-HMEC (protein concentration 0.225 µM), 8.36 ± 0.57%; in the data set on MCF7 (setting [3]), 25.2 ± 0.85%; in the data set with MCF7 (protein concentration 0.225 µM), 27.2 ± 2.3%.

In the case of “MKATIILLLLAQVSWAGPFQQRGLFDFMLEDEASGIGPEVPDDRDFEPSLGPVCPFRCQCHLRVVQCSDLGLDKVPKDLPPDTTLLDLQNNKITEIKDGDFKNLKNLHALILVNNKISKVSPGAFTPLVKLERLYLSKNQLKELPEKMPKTLQELRAHENEITKVRKVTFNGLNQMIVIELGTNPLKSSGIENGAFQGMKKLSYIRIADTNITSIPQGLPPSLTELHLDGNKISRVDAASLKGLNNLAKLGLSFNSISAVDNGSLANTPHLRELHLDNNKLTRVPGGLAEHKYIQVVYLHNNNISVVGSSDFCPPGHNTKKASYSGVSLFSNPVQYWEIQPSTFRCVYVRSAIQLGNYK”, the “percentage of EdU-negative” value in the data set on hTERT-HMEC (setting [12]) is 5.5 ± 0.71%; with hTERT-HMEC (setting [13]), 6.07 ± 0.48%; in the data set on MCF7 (setting [12]), 24 ± 3.8%; with MCF7 (setting [13]), 26.5 ± 1.1%.

Regarding “MKAWGTVVVTLATLMVVTVDAKIYERCELAARLERAGLNGYKGYGVGDWLCMAHYESGFDTAFVDHNPDGSSEYGIFQLNSAWWCDNGITPTKNLCHMDCHDLLNRHILDDIRCAKQIVSSQNGLSAWTSWRLHCSGHDLSEWLKGCDMHVKIDPKIHP [Q96QH8]”, the “percentage of EdU-negative” value with hTERT-HMEC (setting [3]) was 6.28 ± 1.5%; in the data set with hTERT-HMEC (protein concentration 0.225 µM), 7.91 ± 0.26%; with MCF7 (setting [3]) it was 25.8 ± 1.2%; in the data set with MCF7 (protein concentration 0.225 µM) it was 25.03 ± 0.22%.

“MKENVASATVFTLLLFLNTCLLNGQLPPGKPEIFKCRSPNKETFTCWWRPGTDGGLPTNYSLTYHREGETLMHECPDYITGGPNSCHFGKQYTSMWRTYIMMVNATNQMGSSFSDELYVDVTYIVQPDPPLELAVEVKQPEDRKPYLWIKWSPPTLIDLKTGWFTLLYEIRLKPEKAAEWEIHFAGQQTEFKILSLHPGQKYLVQVRCKPDHGYWSAWSPATFIQIPSDFTMNDTTVWISVAVLSAVICLIIVWAVALKGYSMVTCIFPPVPGPKIKGFDAHLLEKGKSEELLSALGCQDFPPTSDYEDLLVEYLEVDDSEDQHLMSVHSKEHPSQGMKPTYLDPDTDSGRGSCDSPSLLSEKCEEPQANPSTFYDPEVIEKPENPETTHTWDPQCISMEGKIPYFHAGGSKCSTWPLPQPSQHNPRSSYHNITDVCELAVGPAGAPATLLNEAGKDALKSSQTIKSREEGKATQQREVESFHSETDQDTPWLLPQEKTPFGSAKPLDYVEIHKVNKDGALSLLPKQRENSGKPKKPGTPENNKEYAKVSGVMDNNILVLVPDPHAKNVACFEESAKEAPPSLEQNQAEKALANFTATSSKCRLQLGGLDYLDPACFTHSFH”: the “percentage of EdU-negative” value in the data set with hTERT-HMEC (setting [8]) was determined as 4.8 ± 0.32%; with hTERT-HMEC (setting [9]), 5.37 ± 0.74%; with MCF7 (setting [8]) it was 26.2 ± 3.5%; with MCF7 (setting [9]), 26.4 ± 0.51%.
